Target: Cre recombinase (UniProt P06956 P06956:1-343)
Assay: cell_activity; plaque formation in cotransfected 293Cre4 cells relative to homologous recombination; pCA36loxΔ gave plaques only in 293Cre cells (Table 2)
Conditions: tags: stably expressed in 293Cre4 cells or from shuttle plasmid cassette (pLC2); chain copies: 4; BamHI/BglII overhangs
From the text: The efficiency of Cre/lox mediated recombination was compared with that of homologous recombination, by measuring the numbers of virus plaques obtained from cotransfections of 293 cells versus the numbers obtained following cotransfections of 293Cre4 cells (see, for example, U.S. patent application Ser. No. 08/473,168, filed Jun. 7, 1995; see also WO96/40955, hereby incorporated by reference).

Chain of Cre recombinase (P06956 whole entry, one chain of several): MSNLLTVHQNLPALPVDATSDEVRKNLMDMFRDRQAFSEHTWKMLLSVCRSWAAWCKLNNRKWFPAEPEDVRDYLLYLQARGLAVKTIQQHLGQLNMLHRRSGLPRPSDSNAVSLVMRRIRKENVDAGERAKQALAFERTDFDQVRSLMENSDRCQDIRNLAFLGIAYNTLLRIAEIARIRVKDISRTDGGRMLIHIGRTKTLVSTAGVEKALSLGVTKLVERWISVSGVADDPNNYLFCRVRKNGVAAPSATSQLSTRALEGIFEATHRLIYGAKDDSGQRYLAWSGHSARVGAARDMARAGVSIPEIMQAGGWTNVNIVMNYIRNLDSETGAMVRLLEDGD

B1: loxP linker AB3233/3234 (in pBHG10lox and pCA36lox / pCA36loxΔ) (dsDNA)
DNA 1: GATCCAATAACTTCGTATAGCATACATTATACGAAGTTATAAGTACTGAATTCG
DNA 2: GATCCGAATTCAGTACTTATAACTTCGTATAATGTATGCTATACGAAGTTATTG
For B1, the “relative plaque formation efficiency” value was 35 fold.

From patent publication US20040142470, “Recombinase-based system for construction of adenovirus vectors” (published 2004)
